Results as given in the supplement of paper PMC11865577.

Legend:
Test in all cases: pull-down binding Z-score (relative to library population); higher = stronger binding
[1] = tested on: G-clamp-N3 (biotin conjugate); conditions: RNA library: Library-1 (pre-miRNA loops + repeats)
How it was run: (§1)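 An RNA library (1 μg) carrying a Cy5 or Cy3 end label was heat-folded in phosphate/NaCl/KCl buffer, then incubated for 60 min at 25 °C with streptavidin beads loaded with 100 pmol of biotin-conjugated small molecule. The beads were washed three times, and bound RNA was released in hot SDS and hybridised to a DNA barcode microarray for 20 h at 55.5 °C. Each binding score was derived by subtracting the signal from beads without compound, averaging the barcoded replicate probes after removing the highest and lowest, and expressing the result as a Z-score relative to the library mean and standard deviation.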

[2] = tested on: TO-3-N3 (biotin conjugate); conditions: RNA library: Library-2
How it was run: as §1

[3] = tested on: TO-3-N3-2 (biotin conjugate); conditions: RNA library: Library-2
How it was run: as §1

TO-N3 (biotin conjugate) = conditions: RNA library: Library-2
How it was run: as §1

[4] = tested on: TO-N3-2 (biotin conjugate); conditions: RNA library: Library-2
How it was run: as §1

Row | Sequence | pull-down binding Z-score [1] | pull-down binding Z-score [2] | pull-down binding Z-score [3] | pull-down binding Z-score (TO-N3 (biotin conjugate)) | pull-down binding Z-score [4]
1 | GCUGCUGCCCCAGAGGCCCAGCAGGUGUCCAGAAC [hsa-mir-6750] | -0.884 | 0.55 | 0.49 | 1.18 | 1.93
2 | GCUGCUGGUGCUCAUCUCAGC [hsa-mir-6877] | -0.152 | 0.71 | -0.0239 | 0.825 | 0.602
3 | GCUGCUUGCACUCGUUCAGC [hsa-mir-3661] | 0.0999 | -0.0975 | -0.246 | 0.1 | 0.863
4 | GCUGGAGUAAGGGCACGCCCGGGGCUGC [hsa-mir-4758] | 1.11 | 0.802 | 0.383 | 1.51 | 1.79
5 | GCUGGAUUUCCCAGCUUGACUCUAAC [hsa-mir-200a] | -0.177 | -0.14 | -0.242 | -0.337 | -0.215
6 | GCUGGGCUGAGCUAACCAGGGCUGGGCUGAGC [hsa-mir-4537] | 0.991 | 0.138 | -0.0332 | 0.532 | 1.42
7 | GCUGGGGACUGGAGAA [hsa-mir-4489] | 2.08 | 2.13 | 1.32 | 2.4 | 1.64
8 | GCUGGGGCGCGGGCUUUCGCUUUCAGUCGAGGGCUAGCGAGCGCAGC [hsa-mir-7846] | 1.79 | 0.914 | 0.105 | 1.12 | 1.12
9 | GCUGGGGGUAAAUGACUUGCACAUGAACACAAC [hsa-mir-708] | -0.951 | -0.0277 | 0.191 | 0.304 | 0.578
10 | GCUGGUCGCGGGUUGUGGGGUUUAGGUCACCGGC [hsa-mir-5091] | 1.7 | 3.15 | 2.9 | 3.21 | 2.87
11 | GCUGGUGACAUUGCUAAUUCAUUUCACACCAGC [hsa-mir-4293] | -0.642 | -0.991 | -0.177 | -1.31 | -0.912
12 | GCUGUGUUGAAUGAUUGGUGAGUUUGUUUGCUCAUUGAUUGAAUCACUGC [hsa-mir-3678] | 0.133 | -0.734 | 0.121 | -0.79 | -0.307
13 | GCUGUUGGUCGGGUUGUGACAUUGCCCGCUGUGGAGAUAACUGC [hsa-let-7i] | -0.338 | -0.307 | 0.672 | 0.207 | 1.01
14 | GCUUAUACGUGCCCUUGCU [hsa-mir-8075] | -1.63 | -0.186 | 0.345 | 0.318 | 0.504
15 | GCUUAUGGGGAUAUUGUGGUUGAUCUGUUCUAUCCAGAUGAC [hsa-mir-1261] | 0.854 | 0.283 | 0.0944 | 0.676 | 0.626
16 | GCUUAUGUCAUGACCUUGGGCUACUCAGGCUGUCUGCACAAUGAGC [hsa-mir-575] | -0.804 | -0.544 | -0.342 | -0.0339 | 1.66
17 | GCUUAUUGAUGUAGCCAACAAGC [hsa-mir-3148] | -0.529 | -0.527 | -0.225 | -0.643 | -0.384
18 | GCUUCCGCUCUGCAGAGGC [hsa-mir-6822] | -0.531 | 0.134 | -0.487 | 0.0168 | -0.438
